Source: publication PMC10617019 (Nature cell biology, 2023)
Where no end group is shown, it is not given here. [ ]: non-standard residue; d: D form. Hyp = O=C(O)[C@@H]1C[C@@H](O)CN1

Molecular target: pVHL in complex with elongin C and elongin B (VCB) (human, UniProt P40337 55-213; Q15370 1-118)
Assay: fluorescence polarisation

B1: Fluorescein isothiocyanate-labelled RIPK1 peptide T189LYYMA(Hyp)EHLNDVNA203 (peptide)
peptide: TLYYMA[Hyp]EHLNDVNA
modifications: also: FITC label, position not given here
For B1, the Kd was 5.9 µM.
